# Assay results published in PMC10746276, “CsrA coordinates the expression of ribosome hibernation and anti-σ factor proteins”.
# Positions count from the first letter of the chain named.
# B1: yqjC leader WT (ssRNA)
# RNA: GGGCGGUGGUUAACACUACCGCUUCGUUGUCUGGACAAUCGUUCCUUUGUAAUAGGUCCGAAUCACAAUGGAAGGUUCAAGAAUGAAAUACCGCAUCGCUUUAGCUGUU
# B2: yqjC leader GGA1 mutant (GGA to AAA) (ssRNA)
# RNA: B1 RNA with G33A, G34A
# How the values were obtained:
# [1] = molecular target: T1, CsrA-His6 (Escherichia coli, UniProt P69913 1-61); experiment: EMSA; Hill coefficient 4.5; EMSA: 0.1 nM RNA, 10 mM MgCl2, 100 mM KCl, 32.5 ng yeast RNA, 20 mM DTT, 7.5% glycerol, 4 U SUPERasin, 30 min 37 C (pH not given); footprint: 2 nM RNA, 10 mM Tris-HCl pH 7.5, 10 mM MgCl2, 100 mM KCl, yeast RNA, acetylated BSA, 37 C; details: protein: recombinant; tags: His6 (C-terminal by name); chain copies: 2; label: 5'-32P; hairpin (mFold)
# T1 sequence (P69913 whole entry): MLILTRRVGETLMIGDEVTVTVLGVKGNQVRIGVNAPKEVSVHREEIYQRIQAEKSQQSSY
# [2] = molecular target: T1, CsrA-His6; experiment: EMSA; EMSA: 0.1 nM RNA, 10 mM MgCl2, 100 mM KCl, 32.5 ng yeast RNA, 20 mM DTT, 7.5% glycerol, 4 U SUPERasin, 30 min 37 C (pH not given); footprint: 2 nM RNA, 10 mM Tris-HCl pH 7.5, 10 mM MgCl2, 100 mM KCl, yeast RNA, acetylated BSA, 37 C; details: protein: recombinant; tags: His6 (C-terminal by name); chain copies: 2; label: 5'-32P
# [3] = molecular target: T1, CsrA-His6; experiment: EMSA; side-by-side with A(-15)G; differs from 95 nM in Fig. 6, RNA may differ; EMSA: 0.1 nM RNA, 10 mM MgCl2, 100 mM KCl, 32.5 ng yeast RNA, 20 mM DTT, 7.5% glycerol, 4 U SUPERasin, 30 min 37 C (pH not given); footprint: 2 nM RNA, 10 mM Tris-HCl pH 7.5, 10 mM MgCl2, 100 mM KCl, yeast RNA, acetylated BSA, 37 C; details: protein: recombinant; tags: His6 (C-terminal by name); chain copies: 2; label: 5'-32P
# [4] = molecular target: T1, CsrA-His6; experiment: EMSA; no effect on affinity vs WT; EMSA: 0.1 nM RNA, 10 mM MgCl2, 100 mM KCl, 32.5 ng yeast RNA, 20 mM DTT, 7.5% glycerol, 4 U SUPERasin, 30 min 37 C (pH not given); footprint: 2 nM RNA, 10 mM Tris-HCl pH 7.5, 10 mM MgCl2, 100 mM KCl, yeast RNA, acetylated BSA, 37 C; details: protein: recombinant; tags: His6 (C-terminal by name); chain copies: 2; label: 5'-32P
binder,measurement,setting,value
GCGCAGGAAGAGCUGAAAAAGCUGGAAGCGC (structured_RNA) [yqjD BS2-BS3 fragment WT],Kd,[1],89 ± 6 nM
B1,Kd,[2],95 ± 7 nM
same,Kd,[3],15 ± 9 nM
B2,binding result,[4],binds
GGGUUUUACGCAAAUCCAGAACGAGAAUGUCUAAUCAG (ssRNA) [elaB leader GGA to CCA],binding result,[2],no binding
GGGUUUUACGCAAAUGGAGAACGAGAAUGUCUAAUCAG (ssRNA) [elaB leader WT],Kd,[2],20 ± 8 nM
